Among the data in patent US20210231650A1 are single-molecule conductance peak G values, retold here.

This test deals with RGD peptide. The test is described as follows: single-molecule conductance, electrodes carrying RGD peptide.

In turn, αvβ3 integrin (receptor) came in with a single-molecule conductance peak G of 0.3 nS.
